Experimental data: US10835594B2, “Type III secretion injectisome proteins for treatment and prevention of chlamydial infections” (priority 2014, dated 2020)

Test system: murine C. trachomatis (Cmu)
Test: Immunization of mice and live intravaginal challenge with Cmu
Design: species or system BALB/c mice
Conditions: mouse, in vivo

B1: Cpn0803 protein: Chlamydia pneumoniae type III secretion-associated protein, SEQ ID NO: 1 (protein, listed as Chlamydia pneumoniae)
chain: MAAKTKTLELEDNVFLLLEGNLKRIFATPIGYTTFREFQNVVFNCANGQQEIANFFFEMLINGKLTQELAPQQKQAAHSLIAEFMMPIRVAKDIHERGEFINFITSDMLTQQERCIFLNRLARVDGQEFLLMTDVQNTCHLIRHLLARLLEAQKNPVGEKNLQEIQEEITSLKNHFDELTKALQ
Q: For B1, which “immune response protective against live challenge” value is on record?
A: The value was “protective against a live challenge with Chlamydia”.

Q: And the “immune response protective against live challenge” value (listed as Cpn0803)?
A: Its value is “Protective Against a Live Challenge with Chlamydia”.
